From paper doi:10.1101/2024.01.16.575832, “Heterodimerization of Endolysin Isoforms During Bacterial Infection by Staphylococcal Phage φ2638A” (bioRxiv, 2024)

How the values were obtained:
[1] = target: T1, full-length Ply2638A endolysin (PlyFL) (Staphylococcus pseudintermedius phage …, UniProt Q4ZD58 1-486); experiment: SEC-MALS; 1:3 (w/w) mixture of PlyFL and PlySV at 1 mg/mL, Superdex 200 10/30, 10 mM HEPES, 150 mM NaCl, 3.4 mM EDTA, 0.005 % Tween20, pH 7.4; conditions: both partners purified
T1 construct: Endolysin Ply2638A of Staphylococcus pseudintermedius phage φ2638A, full length (M23 endopeptidase, central amidase, C-terminal SH3b CBD; SH3b domain is residues 393-486); internal start codon TTG at Leu180 silently changed to CTC so that only the FL isoform is made; expected mass 55.5 kDa; The TTG>CTC change at Leu180 is silent (Leu to Leu); Purified as a protein without a His-tag; In the SEC of …
T1 sequence (looked up): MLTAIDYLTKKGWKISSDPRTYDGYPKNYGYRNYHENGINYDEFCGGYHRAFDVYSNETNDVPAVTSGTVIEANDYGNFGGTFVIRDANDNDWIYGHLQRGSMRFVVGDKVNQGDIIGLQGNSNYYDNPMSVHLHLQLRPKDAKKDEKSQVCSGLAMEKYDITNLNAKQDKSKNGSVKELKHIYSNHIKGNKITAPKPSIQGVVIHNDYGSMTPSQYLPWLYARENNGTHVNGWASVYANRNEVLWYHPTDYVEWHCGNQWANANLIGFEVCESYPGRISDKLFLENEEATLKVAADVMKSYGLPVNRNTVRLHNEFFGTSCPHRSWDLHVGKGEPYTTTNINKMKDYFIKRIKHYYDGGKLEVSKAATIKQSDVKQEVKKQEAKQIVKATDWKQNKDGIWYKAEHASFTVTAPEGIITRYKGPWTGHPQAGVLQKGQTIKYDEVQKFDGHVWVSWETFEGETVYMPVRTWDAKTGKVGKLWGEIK

[2] = target: T1, full-length Ply2638A endolysin (PlyFL); experiment: SPR; Biacore X, PlyFL immobilised by amine coupling on a CMD500L chip; analytes at 750 nM, 1 μM, 2.5 μM and 5 μM, 10 μL/min, running buffer PBS pH 7.4; steady state not attained; conditions: both partners purified

B1: Ply2638A short variant isoform (PlySV) (domain or fragment, UniProt Q4ZD58 180-486, looked up)
chain: LKHIYSNHIKGNKITAPKPSIQGVVIHNDYGSMTPSQYLPWLYARENNGTHVNGWASVYANRNEVLWYHPTDYVEWHCGNQWANANLIGFEVCESYPGRISDKLFLENEEATLKVAADVMKSYGLPVNRNTVRLHNEFFGTSCPHRSWDLHVGKGEPYTTTNINKMKDYFIKRIKHYYDGGKLEVSKAATIKQSDVKQEVKKQEAKQIVKATDWKQNKDGIWYKAEHASFTVTAPEGIITRYKGPWTGHPQAGVLQKGQTIKYDEVQKFDGHVWVSWETFEGETVYMPVRTWDAKTGKVGKLWGEIK
notes: expected mass 35.3 kDa; the C-terminal SH3b domain ends at residue 486; The first residue may be Met when translation starts at the TTG codon or in the recombinant construct (surmise); also called SV isoform; short variant (SV); source: E. coli, purified (cation exchange chromatography, SEC); also co-produced with the FL isoform from pET302_PlyWT (PlyWT), purified the same way
Q: Which “stoichiometry N” value [1] does the source give for B1 here?
A: 1 PlySV per PlyFL

B2: central amidase domain of Ply2638A (Ami) (domain or fragment, UniProt Q4ZD58 180-359, looked up)
chain: LKHIYSNHIKGNKITAPKPSIQGVVIHNDYGSMTPSQYLPWLYARENNGTHVNGWASVYANRNEVLWYHPTDYVEWHCGNQWANANLIGFEVCESYPGRISDKLFLENEEATLKVAADVMKSYGLPVNRNTVRLHNEFFGTSCPHRSWDLHVGKGEPYTTTNINKMKDYFIKRIKHYYDG
notes: Endolysin Ply2638A of phage φ2638A, central N-acetylmuramoyl-L-alanine amidase domain, residues 180-359 (Leu180-Gly359); The limits are printed for the construct used in crystallisation trials; also called amidase domain alone; source: E. coli, purified (cation exchange chromatography, SEC)
Q: Does B2 bind [2]?
A: binds
